Results: patent US5223421A, “Identification of methionine Nα-acetyltransferase” (The General Hospital Corporation, priority 1990, dated 1993)

Molecular target: T1, yeast methionine acetyltransferase (M-N^α AT) (Saccharomyces cerevisiae, UniProt Q06504)
T1 construct: a crude yeast homogenate from the aaa1 mutant strain; endogenous in cells; host or cells: Saccharomyces cerevisiae strain T3A-a (aaa1), crude lysate
T1 sequence (Q06504 1-195): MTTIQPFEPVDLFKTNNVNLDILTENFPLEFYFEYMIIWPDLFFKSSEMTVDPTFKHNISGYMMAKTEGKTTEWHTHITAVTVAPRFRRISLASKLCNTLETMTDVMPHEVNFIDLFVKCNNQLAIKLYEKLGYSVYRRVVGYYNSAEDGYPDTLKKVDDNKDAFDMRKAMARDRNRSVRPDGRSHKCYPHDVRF
T1 sequence (Q12387 2-796 partner limits assumed): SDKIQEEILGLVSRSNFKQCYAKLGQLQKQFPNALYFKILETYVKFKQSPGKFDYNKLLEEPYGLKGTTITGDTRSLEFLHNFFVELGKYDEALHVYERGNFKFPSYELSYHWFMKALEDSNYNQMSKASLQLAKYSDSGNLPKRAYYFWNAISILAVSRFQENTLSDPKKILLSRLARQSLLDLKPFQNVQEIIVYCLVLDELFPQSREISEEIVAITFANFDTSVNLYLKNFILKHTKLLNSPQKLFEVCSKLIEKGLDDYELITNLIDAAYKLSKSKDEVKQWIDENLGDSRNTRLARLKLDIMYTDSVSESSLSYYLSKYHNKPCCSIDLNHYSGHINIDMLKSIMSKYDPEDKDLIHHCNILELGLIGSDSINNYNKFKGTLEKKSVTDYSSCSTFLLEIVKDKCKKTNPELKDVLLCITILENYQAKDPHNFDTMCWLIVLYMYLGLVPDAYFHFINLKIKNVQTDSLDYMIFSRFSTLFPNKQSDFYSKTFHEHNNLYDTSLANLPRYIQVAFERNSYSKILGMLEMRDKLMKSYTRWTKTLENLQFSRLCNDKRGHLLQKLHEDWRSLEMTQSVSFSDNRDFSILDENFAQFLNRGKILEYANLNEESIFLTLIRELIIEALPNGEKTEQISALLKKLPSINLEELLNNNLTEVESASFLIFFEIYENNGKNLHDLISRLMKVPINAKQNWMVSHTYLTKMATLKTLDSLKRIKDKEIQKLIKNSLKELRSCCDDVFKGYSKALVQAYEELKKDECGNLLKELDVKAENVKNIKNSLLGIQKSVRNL
Assay: Relative activity of yeast methionine acetyltransferase for N^α -acetylation of synthetic peptides (PAI analogues)
Assay type: biochemical
Design: tested at 50 µM
Conditions: Table 5; mean ± SD (N=3-5); normalized to yeast proteinase A inhibitor 3
Description: N^α -acetyltransferase activity was determined as previously described [Lee et al., J. Biol. Chem. 263:14948-14955 (1988)]. Aliquots of the lysate or chromatographic fractions were added to 1.5 ml Eppendorf tubes containing a reaction mixture of 50 mM HEPES, pH 7.4, 150 mM KCl, 1 mM DTT, 25 μM [^3 H] acetyl coenzyme A (0.5 μCi) and 50 μM synthetic peptide with an adjusted final volume of 100 μl. The assay mixture was incubated at 30° C. for 30 min. The reaction was stopped by adding 17 μl of 0.5M acetic acid and chilled in an ice bath. The reaction samples were filtered through SP membrane discs (Cuno) (previously pre-swollen in 0.5M acetic acid), and then washed three times with 1 ml of 0.5M acetic acid on a Millipore 1225 sampling manifold. The partially dried membranes were placed in scintillation cocktail and counted with a Beckman LS 3801 scintillation counter. One unit of activity was defined as the amount of enzyme able to transfer 1 pmol of [^3 H] acetyl group from [^3 H] acetyl coenzyme A to synthetic peptide per min under standard enzyme assay conditions defined above.
Proteinase A inhibitor 3 (PAI) (Tsunasawa et al., Methods Enzymol. 106:165-170 (1984); Wold, F., Trends Biochem Sci. 9:256-267 (1984); Driessen et al., CRC Crit. Rev. Biochem 18:281-325 (1985); Mullen et al., EMBO J. 8:2067-2075 (1989); Lee et al., J. Bacteriol. 171:5795-5802 (1989); Hershko et al., Proc. Natl. Acad. Sci. USA 81:7021-7025 (1984); Bachmair et al., Science 234:179-186 (1986); Arfin et al., Biochemistry 27:7979-7984 (1988); Persson et al., Eur. J. Biochem. 152:523-527 (1985); Huang al., Biochemistry 26:8242-8246 (1987); Lee et al., J. Biol. Chem. 263:14948-14955 (1988); Kamitani et al., J. Biol. Chem. 264:13188-13193 (1989)) is the only known yeast protein which is acetylated at its NH2 -terminal methionine residue (Biedermann et al., Carlsberg Res. Commun. 45:225-235 (1980)). […] The numbers in parentheses refer to the residue numbers, and the letters in parentheses refer to the amino acid sequence Abbreviations are as in FIG. 1. Data are reported as mean activity ±SD (N=3-5) and are normalized to the activity of the homogenate towards yeast proteinase A inhibitor 3. The sequence of this protein is:
Thus, by using PAI, its analogues and other peptides, the structural features of M-N^α AT substrates were studied. […] Only three of nineteen analogues were acetylated, although the efficiency of their acetylation varied from 9-55% (Asp>Glu>Gln). Although it was shown previously that iso-cytochrome c variant proteins (Met-Ile-Arg - - -, Met-Ile-Lys - - -, Met-Met-Asn - - -) can be N^α -acetylated in vivo (Tsunasawa et al., J. Biol. Chem. 260:5382-5391 (1985)), synthetic peptides mimicking the NH2 -terminal 24 amino acid residues of these iso-cytochrome c variants were not acetylated by the yeast M-N^αAT.

## MNTDQQKVSEIFQSSKEKLQGDAK (MNTDQQKVSEIFQSSKEKLQGDAK) [Proteinase A Inhibitor 3 (1-24) (Yeast)]
  Activity (%): 100 ± 5%
